Experimental data published in the supplement of paper PMC11246515.
± gives the standard deviation of the averaged measurements.

Experiment: total protein half-life in vivo (active degradation + dilution); higher = more stable protein
[1] = E. coli NCM3722 delta-clpP delta-lon delta-hslV, growth: N-lim chemostat, doubling time 6 h
[2] = E. coli NCM3722 delta-clpP, growth: N-lim chemostat, doubling time 6 h
[3] = E. coli NCM3722 delta-hslV, growth: N-lim chemostat, doubling time 6 h
[4] = E. coli NCM3722 delta-lon, growth: N-lim chemostat, doubling time 6 h
[5] = E. coli NCM3722 delta-smpB, growth: N-lim chemostat, doubling time 6 h
[6] = wild type E. coli NCM3722, growth: C-lim chemostat, doubling time 3 h
[7] = wild type E. coli NCM3722, growth: C-lim chemostat, doubling time 6 h
[8] = wild type E. coli NCM3722, growth: C-lim chemostat, doubling time 12 h
[9] = wild type E. coli NCM3722, growth: N-lim chemostat, doubling time 6 h
[10] = wild type E. coli NCM3722, growth: N-lim chemostat, doubling time 12 h
[11] = wild type E. coli NCM3722, growth: P-lim chemostat, doubling time 6 h
[12] = wild type E. coli NCM3722, growth: P-lim chemostat, doubling time 12 h

Sequence	total protein half-life in vivo [1]	total protein half-life in vivo [2]	total protein half-life in vivo [3]	total protein half-life in vivo [4]	total protein half-life in vivo [5]	total protein half-life in vivo [6]	total protein half-life in vivo [7]	total protein half-life in vivo [8]	total protein half-life in vivo [9]	total protein half-life in vivo [10]	total protein half-life in vivo [11]	total protein half-life in vivo [12]
MALLNVDKLSVHFGDESAPFRAVDRISYSVKQGEVVGIVGESGSGKSVSSLAIMGLIDYPGRVMAEKLEFNGQDLQRISEKERRNLVGAEVAMIFQDPMTSLNPCYTVGFQIMEAIKVHQGGNKSTRRQRAIDLLNQVGIPDPASRLDVYPHQLSGGMSQRVMIAMAIACRPKLLIADEPTTALDVTIQAQIIELLLELQQKENMALVLITHDLALVAEAAHKIIVMYAGQVVETGDAHAIFHAPRHPYTQALLRALPEFAQDKERLASLPGVVPGKYDRPNGCLLNPRCPYATDRCRAEEPALNMLADGRQSKCHYPLDDAGRPTL [P0AAG0]	6.72 ± 1.2 h	6.26 ± 0.28 h	6.21 ± 0.75 h	7.31 ± 0.78 h	6.33 ± 0.16 h	3.12 ± 0.29 h	6.95 ± 0.84 h	12 ± 0.99 h	5.94 ± 0.23 h	12.6 ± 0.25 h	6.27 ± 0.38 h	13.3 ± 1.2 h
MALLPDKEKLLRNFLRCANWEEKYLYIIELGQRLPELRDEDRSPQNSIQGCQSQVWIVMRQNAQGIIELQGDSDAAIVKGLIAVVFILYDQMTPQDIVNFDVRPWFEKMALTQHLTPSRSQGLEAMIRAIRAKAAALS	4.3 ± 0.53 h	3.71 ± 0.31 h		5.07 ± 1.1 h	4.012 ± 0.015 h	3.39 h	4.57 ± 0.48 h	9.46 ± 0.25 h	3.509 ± 0.018 h	5.75 ± 0.11 h	4.85 ± 0.13 h	10.1 ± 1.2 h
MALNTPQITPTKKITVRAIGEELPRGDYQRCPQCDMLFSLPEINSHQSAYCPRCQAKIRDGRDWSLTRLAAMAFTMLLLMPFAWGEPLLHIWLLGIRIDANVMQGIWQMTKQGDAITGSMVFFCVIGAPLILVTSIAYLWFGNRLGMNLRPVLLMLERLKEWVMLDIYLVGIGVASIKVQDYAHIQAGVGLFSFVALVILTTVTLSHLNVEELWERFYPQRPATRRDEKLRVCLGCHFTGYPDQRGRCPRCHIPLRLRRRHSLQKCWAALLASIVLLLPANLLPISIIYLNGGRQEDTILSGIMSLASSNIAVAGIVFIASILVPFTKVIVMFTLLLSIHFKCQQGLRTRILLLRMVTWIGRWSMLDLFVISLTMSLINRDQILAFTMGPAAFYFGAAVILTILAVEWLDSRLLWDAHESGNARFDD [P0AD03]		3.28 h		4.34 h	4.47 h				4.43 h		3.99 h	6.67 ± 0.85 h
MALPILLDCDPGHDDAIAIVLALASPELDVKAITSSAGNQTPEKTLRNVLRMLTLLNRTDIPVAGGAVKPLMRELIIADNVHGESGLDGPALPEPTFAPQNCTAVELMAKTLRESAEPVTIVSTGPQTNVALLLNSHPELHSKIARIVIMGGAMGLGNWTPAAEFNIYVDPEAAEIVFQSGIPVVMAGLDVTHKAQIHVEDTERFRAIGNPVSTIVAELLDFFLEYHKDEKWGFVGAPLHDPCTIAWLLKPELFTSVERWVGVETQGKYTQGMTVVDYYYLTGNKPNATVMVDVDRQGFVDLLADRLKFYA	4.982 ± 0.041 h	4.24 ± 0.14 h	4.66 ± 1 h	4.291 ± 0.039 h	4.236 ± 0.027 h	3.02 ± 0.045 h	5.85 ± 0.58 h	10.5 ± 0.72 h	4.76 ± 0.19 h	7.25 ± 0.29 h	5.5168 ± 0.0052 h	11.3 ± 0.33 h
MALPRITQKEMTEREQRELKTLLDRARIAHGRVLTNSETNSIKKDYIDKLMVEREAEAKKARQLKKKQAYKPDPEASFSWSANTSTRGRR	5.58 ± 1 h		1.79 ± 0.25 h	1.63 h	2.02 h		1.65 h	2.08 h		2.87 ± 0.66 h		
MALTTISPHDAQELIARGAKLIDIRDADEYLREHIPEADLAPLSVLEQSGLPAKLRHEQIIFHCQAGKRTSNNADKLAAIAAPAEIFLLEDGIDGWKKAGLPVAVNKSQPLPLMRQVQIAAGGLILIGVVLGYTVNSGFFLLSGFVGAGLLFAGISGFCGMARLLDKMPWNQRA	4.3 ± 0.19 h	4.2 ± 0.14 h	4.71 ± 0.24 h	4.74 ± 0.82 h	5.91 ± 1.4 h	2.61 ± 0.23 h	6.01 ± 1.2 h	8.96 ± 2.1 h	4.58 ± 0.2 h	8.75 ± 0.24 h	5.266 ± 0.016 h	10.3 ± 0.39 h
